Reference: patent US20250195629A1, “SITE-SPECIFIC BRAIN THERAPEUTICS” (William Marsh Rice University, priority 2023, published 2025)
Read-outs that look alike come from different tables or passages of the source.

Legend:
[1] = system: dopamine receptor D1+ or D2+ expressing cells in the CPu; type: in vivo, mouse
Experimental: c-Fos activation with engineered AADC—Three groups of mice underwent FUS-BBBO procedure to target a single site at left striatum immediately after intravenous injection of recombinant protein AADC-IKVAV (SEQ ID NO: 23) (20 mg/mL, 250 mg/kg) or equivalent volume of PBS buffer (n=5 mice for FUS alone+L-DOPA group). After 48 h, the mice were given a single dose of L-DOPA (0.1 mg/mL, 2 mg/kg, i.p.; Spectrum Chemical) 10 min after injection of carbidopa (1 mg/mL, 25 mg/kg, i.p.; Sigma-Aldrich), both of which were dissolved in sterile saline containing 2.5 and 0.125 mg/mL ascorbic acid. […] After 2 hours, the mice were euthanized by transcardial perfusion, and their brains were extracted and sliced into 50 μm coronal sections following 24-48 hours of fixation.
The section displaying the strongest AADC fluorescence was selected as the representative for each mouse, and its adjacent section was stained separately to identify c-Fos and dopamine receptor D1 and D2 positive cells. The procedure was carried out as follows: (1) block sections in 10% normal goat serum (SouthernBiotech) and 0.3% Triton-X solution in PBS for 1 h at room temperature; (2) incubate with primary rabbit anti-c-Fos (1:2000, 2250S, Cell Signaling Technology) antibody in PBS with 0.3% Triton-X for 2 h at room temperature; (3) after washing three times in PBS (15 min each, the same as below), incubate with primary rat anti-D1 Dopamine Receptor (1:500, D2944, MilliporeSigma) and Guinea pig anti-Dopamine Receptor D2 (1:500, Cat. #376 205, Synaptic Systems) antibodies in 5% normal goat serum and 0.3% Triton-X solution in PBS overnight at 4° C.; (4) after washing three times, incubate with secondary goat anti-rabbit antibody conjugated to Alexa Fluor 647 (1:500, A-21245, ThermoFisher) in PBS with 0.3% Triton-X for 2 h at room temperature; (5) after washing three times, incubate with secondary goat anti-rat antibody conjugated to Alexa Fluor 546 (1:500, A-11081, ThermoFisher) and goat anti-Guinea Pig antibody conjugated to Alexa Fluor 488 (1:500, A-11073, ThermoFisher) in 5% normal goat serum and 0.3% Triton-X solution in PBS for 2 h at room temperature; (6) after washing three times, mount sections onto glass slides using the mounting media (Vector Laboratories) with DAPI and air-dry overnight in dark before imaging.
Within the left striatum region, a specific 5×9 binned rectangle area was selected corresponding to the highest observed AADC fluorescence in the adjacent AADC-stained section. Subsequently, images were captured of these areas using a 40× objective. The corresponding contralateral areas in the right striatum were also imaged.
(§1) In FIG. 7, we applied the following brightness (white) thresholds for the corresponding channels: 6045 (DAPI, nuclei, not shown), 15,000 (Cy3, D1R), 16,000 (green, D2R), and 6045 (far-red, c-Fos), with a gamma value of 1. In FIG. 11, we applied a Brightness (White) threshold of 6045 for both DAPI (nuclei, not shown) and far-red (c-Fos) channels, with a Gamma value of 1. The images were then overlayed, and the c-Fos+ cells were manually counted. Similarly, the GFAP+ cells were manually counted, as shown in FIG. 15c and FIG. 17, by applying a Brightness (White) threshold of 5686 and a Gamma value of 1 for both the DAPI (nuclei) and far-red (GFAP, purple) channels.
To manually count the c-Fos-positive cells in FIG. 7, three scorers (Z. H., S. N., and R. J.) independently assessed all c-Fos staining sites. R. J. served as the blinded scorer, and the averaged counts from all three scorers were rounded for the final statistical analysis.

c-Fos+ cells in the CPu = test: c-Fos+ cell count at the CPu after behavior test; type: in vivo, mouse
Source text: To quantify the c-Fos-positive cells related to FIG. 11, the stained coronal sections were initially imaged using a 4× objective in DAPI (nuclei, not shown) and far-red (c-Fos, shown in purple) channels. Within the left striatum region, one or more specific 3×3 binned square areas were selected corresponding to the highest observed AADC fluorescence in the adjacent AADC-stained section. Subsequently, images of these areas were captured using a 40× objective. Corresponding contralateral areas in the right striatum were also captured.
as §1
To address potential bias and validate our counting approach, all c-Fos staining sites from mice in FIG. 11 were independently counted by 4 scorers (A. M., Z. H., C. H. and R. J.). C. […]

Molecule	c-Fos+ cells expressing D1+ or D2+, FUS-targeted region vs contralateral site ([1]; FUS alone + L-DOPA 2 mg/kg i.p., no enzyme)	c-Fos+ cells with no expression of D1+ or D2+ in vicinity of CPu, FUS-targeted vs contralateral ([1]; FUS-BBBO only without AADC-IKVAV (FUS alone+L-DOPA))	change in ipsilateral c-Fos-positive cells vs contralateral site (c-Fos+ cells in the CPu; untreated mice or FUS alone, L-DOPA 2 mg/kg i.p.)	c-Fos+ cells expressing D1+ or D2+, FUS-targeted region vs contralateral site ([1]; FUS+AADC-IKVAV 250 mg/kg i.v., L-DOPA 2 mg/kg i.p. after 48 h, perfused 2 h later)	c-Fos+ cells with no expression of D1+ or D2+ in vicinity of CPu, FUS-targeted vs contralateral ([1]; FUS+AADC-IKVAV alone)	c-Fos+ cells expressing D1+ or D2+, FUS-targeted region vs contralateral site ([1]; FUS+AADC-IKVAV without L-DOPA)	c-Fos+ cells with no expression of D1+ or D2+ in vicinity of CPu, FUS-targeted vs contralateral ([1]; FUS+AADC-IKVAV+L-DOPA)	increase in ipsilateral c-Fos-positive cells vs contralateral site (c-Fos+ cells in the CPu; RAID-treated mice, FUS+AADC-IKVAV+L-DOPA, counted by A. M. and Z. H.)
N[C@@H](Cc1ccc(O)c(O)c1)C(=O)O [L-DOPA, reference compound]	No significant change	no significant changes	no significant changes					
AADC-IKVAV: aromatic-L-amino-acid decarboxylase (AADC) protein fused with short peptide IKVAV (SEQ ID NO: 23); CDS SEQ ID NO: 21 (protein, misc_feature 1..1602 Synthetic: AADC-IKVAV) MRGSHHHHHHGMASMTGGQQMGRDLYDDDDKDPMNASEFRRRGKEMVDYMANYMEGIEGRQVYPDVEPGYLRPLIPAAAPQEPDTFEDIINDVEKIIMPGVTHWHSPYFFAYFPTASSYPAMLADMLCGAIGCIGFSWAASPACTELETVMMDWLGKMLELPKAFLNEKAGEGGGVIQGSASEATLVALLAARTKVIHRLQAASPELTQAAIMEKLVAYSSDQAHSSVERAGLIGGVKLKAIPSDGNFAMRASALQEALERDKAAGLIPFFMVATLGTTTCCSFDNLLEVGPICNKEDIWLHVDAAYAGSAFICPEFRHLLNGVEFADSFNFNPHKWLLVNFDCSAMWVKKRTDLTGAFRLDPTYLKHSHQDSGLITDYRHWQIPLGRRFRSLKMWFVFRMYGVKGLQAYIRKHVQLSHEFESLVRQDPRFEICVEVILGLVCFRLKGSNKVNEALLQRINSAKKIHLVPCHLRDKFVLRFAICSRTVESAHVQRAWEHIKELAADVLRAEREGGSGSSGGSGGSGGSGIKVAV				6.6 (±1.7) fold	no statistically significant changes	No significant change	no statistically significant changes	5.7(±1.8) fold
